We go through 15 sequences from a protein production outcome set (Wang et al. 2014).

The series is described as follows: label from the status in PepcDB records.
Regarding “MNIELFIQRAEALHKQLADLYQTASVLPWIPPDLLPQAFKELYSNSKLVQLAAEELYHQNEELIQTRSLLEAERQHYHDLFEFAPDGYLVTNAEGIIQEANLTATKLFNAPKHILVDRSVINFIRLEERESFHCELNQLFQTDKAKKLIVRLHQFHGESFDALLTISVVRSQNGKIKSLHWLLSHINENQQQSLGLVNHENYLSQNRPVYVYAKGENIPLNPLVIWYVRQGLVKLSTFCETGEEVLTGLAKTHMVFGSSMTKLPIYQATALADVELVSINFAEIAVSQMLSHILLPKINQQLQQKESFLVITGRRKIEDRLYHLLQFLKQEIGEPVGEKTRLSVRFTHEDIASACCTTRVTITRLMGKLQQQGLISFDSKKHMIINKRLEDRE”, the protein production entry was “failed”.

Turning to “MNIEQQLYDVVKQLIEQRYPNDWGGAAAIRVEDGTIYTSVAPDVINASTELCMETGAILEAHKFQKKVTHSICLARENEHSELKVLSPCGVCQERLFYWGPEVQCAITNAKQDIIFKPLKELQPYHWTEAYHDEMVKEWSTR”, the protein production result is recorded as “not failed”.

On to “MNIFEQTPPNRRRYGLAAFIGLIAGVVSAFVKWGAEVPLPPRSPVDMFNAACGPESLIRAAGQIDCSRNFLNPPYIFLRDWLGLTDPNAAVYTFAGHVFNWVGVTHIIFSIVFAVGYCVVAEVFPKIKLWQGLLAGALAQLFVHMISFPLMGLTPPLFDLPWYENVSEIFGHLVWFWSIEIIRRDLRNRITHEPDPEIPLGSNR”, for which the protein production entry is “failed”.

As for “MNIKREQVFVWSGKIRLFHWINVIAILLLIVIGVVILNGKLFGVSTDGKILLKTIHVIVGYVFATNLIFRLIIAFIGKTYEKWGKMLPFNKGFTEELIEFTQQKRLTYKGHNPAGKLMVLALLSFMSVQMISGLVIAGTDIYYPPFGNYFIQSIAIDKDNLAVIKPYSKENIDEASYQAMRDFRKPFITAHVYSFYCLLFLIPLHIIGVIVAERRERSAIVSAMFNGYKYLPKDEPTDH”, the protein production entry is on record as “failed”.

On to “MNILKMKKTGIFLGGVLFGTVGVKILSSDCVKKTCTRATAGALKVKDSVLETTTKIQENVEDILAEAKEINEQEDLSTSKVNVVQDTLKCEQEVLKTETIKTVEDTNSNSIKCEEIKDNVIEEKNSTCTTE”, for which the protein production entry was “failed”.

Turning to “MNILKRKTPQNIRFGEQKPKYYFHIRAFAVLLGVFFLLGVYFNWQSILEKMDDKPISAFALVGQNTFTTADDIKESLLKMGELKGFWGQDVAPIQEQIEALPWVKGAIVRKMWPNRLSIWVSEYQPVAFWNQNQFVTLDGIVFQLPSVRLTAKNLPYLGGPDYQSLKVIETWNQIYINLKSNNIMAKGINIDDRGAWQVQLDNDIVLKLGRGDWKSKLERFVTIYPQIDVPENKKIDYIDLRYTAGAAVGMVDR”, the protein production entry is reported as “failed”.

“MNILLAGGSGLIGQELVRGMGEEHHYTVLGRDKDAIQKIFTTKASSLSWDELNTQDASRFDAVINLCGVNIAISRWTPKIKEEIISSRVQTTENLLHWILQQNAKPRFYCANAVGIYGLQENGDATDLTEDTAINWEHPKDYLSEVGIRWQQALQKAEEAGLPVTSTRFGVVLKKGKGFLGKLYPSFICGLGSTIGDGRQYLSWIDSEDLVNAYRFLLNHPEITGPVNVTSPNPCMQREFAKAFAKSLHRPLLLWTPAFIIHLLFGEMGDCLINHGQKVKPKRLLEAGFEFKWPDIEKALKHQYSAILEHHHHHH”: the protein production result is listed as “not failed”.

For the sequence “MNIMRTAMLLAFMTALFMGVGYLVGGSNGMVIALLMAGGLNFFSYWNSDKIVLRMYGAREVDQHSSPVYYKIVSDLARRASLPQPKVYIIDNAQPNAFATGRNPQNAAVAASTGLLNQLSAEEVAGVMAHELAHIEHRDTLTMTLTATIAGAISMLGNFAFFMGGQRHSSENSHSTGAIGGLLALFVAPFAAMLVQMAISRTREYAADRRGAEICGNPLWLASALSKIAGGGHTVYNEEAEHNPATAHMFIINPLRGEGADSLFSTHPATANRIAALRRQAEEMKGARVENMGWNEKIGLHKKSSDFRDLNSGAQTSVFNEESTVQRIKKRPSWLRYGDSKRPRS”, the protein production entry is listed as “failed”.

Take “MNINVKDIIADSHLAFLNQENETALRLARQAISLAPDNPDAYRCAGNACMSLDRYDEAIEYYRTAVKYDPDNGNRYYDLGFALASAERFSDALKNLAKAEELGCTPENLVQLYNLLGILCFDIGRYDDALVNLNKAEKLIGIDVDILKRKAVIYGIKNDIKNGLMTANQIKLVTPSEYTGYQIAFKLLVQAKRLDEAEKELERARKYASPTMDFYFDYMTLELEKYKTDNDKEHFKTALGMIEKALKTVKPTVKEVVESYINAAEIYLQLEDADRAIECLNAAQNPIWAYNNGFDVVVRNYEPVTLTEYDIEDMIEADRKKIEEQFGDYGFEEMVESIEPDEEGNRDYLTVIEDEVKSDAKEDSEVYKLDESEKVEYSSDNIDQINRLYVGAYTVKKDFEKVIEYSRKLQASENTYSVYLGKYTEANAMKELGLPDFAAKYEEIIKFFRNAMIKDPTDLTAVTFRVQCYIDIGQYDEAEQLCSLLTKEVRNSFMEKIKKAKSGGEQH”: the protein production result is reported as “failed”.

For the sequence “MNIQDYPDRDMLAIDLANHLAGELEATLFTHDSATLAVAGGTTPGPVFDVLCAADLDWHRVMVLPTDERCVPQDHSRANARLIAERLLVNRAASARYLPLYLPGAEPEDCLAEVEALLTPALPLSVLVLGMGEDMHTASLFAGMPGLAAALDADAPALAVARPETQPENRITLTAPVLNGALSKHLIIYGAAKRKALERAMSMHPEEAPIAAVLDGITVHW”, the protein production entry is reported as “failed”.

As to “MNIRMGTKGKRPLRSLTPRDKIHAIQRIHDGESKASVARDIGVPESTLRGWCKNEDKLRFMSRQSATDNLCADALGDKMDGGGGGGGGAGGGGLLGPPEKRQRLDGALPLNFSNKLKFDELAFKRSPLNGLDYSTNKNLADLGYNGLPVDYAAFNGGVKAKVFGADINRPAADPSLNAISPLSSLTHLSGLTGISQSPLAISFNELTTNLNLLAQLNPGLAAMSGLNSF”, the protein production entry is listed as “not failed”.

Consider “MNIVIAGAGEVGTHLAKMLSQEEQNIVLIDPNPKRLELAAMRSELLPQVGNPLSPSDLLQANVKYADLFISVMPEEADNILACALASRLGAGKTLARINNNEFLKPDMAQYFRDMGVHTMIYPELLAAREIVSTIKNPWARQYVELFDGALVLVGVKVREGAHIVGKYLHELTRTGNKIFHIVAIKRDLETIIPKGGTQVLHGDIVFFATAQNHLDEVRKLAGKDNPPVHKVVIMGGSRIAIRSIEMIPRNIQVAIIEKDKEKSMRISAIAPTNVQVYNGDGRDSDILIEAGLDQTDVFIALTENSETNVLACLGAKRFGVFKTIAKEENIDYISLADRLDIGTLINKKLLAAGSIYRIFLGEDTSTVKCLTLANADVAELVAHRGAPVTKRPVKDLNIPEGITFGGMVRNGVPQMIHGDTVIEPYDHVVVFCLNTPLNILKDFFG”, for which the protein production result is “failed”.

For the sequence “MNIVSWKDANDEVAGGATTRREREVKEDQEETEVRATSGKTVIKKQPTSISSSSSSWMKSKDPRIVRVSRAFGGKDRHSKVCTLRGLRDRRVRLSVPTAIQLYDLQERLGVDQPSKAVDWLLDAAKEEIDELPPLPISPENFSIFNHHQSFLNLGQRPGQDPTQLGFKINGCVQKSTTTSREENDREKGENDVVYTNNHHVGSYGTYHNLEHHHHHHQHLSLQADYHSHQLHSLVPFPSQILVCPMTTSPTTTTIQSLFPSSSSAGSGTMETLDPRQMVSHFQMPLMGNSSSSSSQNISTLYSLLHGSSSNNGGRDIDNRMSSVQFNRTNSTTTANMSRHLGSERCTSRGSDHHM”, the protein production result was “failed”.

Turning to “MNKFLRVLFILVILAMTDAIIFQLFFPTYMGSHSGYGISVGWQREIGIWNVTVLVILITVNLKYDWFYLRAVLMALIIGGLGIGTNHFLSYLQYRHSVNAIGALENYLLVLGWIIGWWLENSSRKRV”, the protein production entry is given as “failed”.

Take “MNKFVKSLLVAGSVAALAACSSSNNDAAGNGAAQTFGGYSVADLQQRYNTVYFGFDKYDITGEYVQILDAHAAYLNATPAAKVLVEGNTDERGTPEYNIALGQRRADAVKGYLAGKGVDAGKLGTVSYGEEKPAVLGHDEAAYSKNRRAVLAY”: the protein production result is “not failed”.
